Assay results reported in patent US7935341B2, “Antibodies to complementary peptides of thrombin or portions thereof” (Orthologic Corp., priority 2005, dated 2011).
No end group written: not given here.

Target: T1, biotinylated thrombin ([B]-thrombin) (Homo sapiens, UniProt P00734)
T1 construct: present in blood plasma in the form of a precursor, pro-thrombin
Assay: Binding of biotinylated thrombin to complementary peptides coated on ELISA plates
Conditions: for specific binding of [B]-thrombin to the complementary peptide: peptide-coated ELISA plate, total minus nonspecific binding (excess unlabeled thrombin), HRP-avidin readout at 450 nm
Protocol: Complementary peptides (CPs) (AC-23, 23C53, C1053 and ND1053) were coated onto individual wells of 96 well plates by incubating in a 10 μg/ml solution of peptide in carbonate buffer (pH 9.5) or in Phosphate Buffered Saline (PBS) overnight at room temperature. The amino acid sequences of particular complementary peptides are described below and are depicted in FIG. 4. In particular, the following CPs were generated:
Prior to use, the wells were covered with blocking solution containing 0.1% bovine serum albumin (BSA) to reduce non-specific binding. The plates were rinsed and stored at 4° C. until used. To perform the binding experiments, the peptide-coated ELISA plates were blocked with 200 μl per well of blocking buffer (0.1% BSA (w/v) in PBS) for 90 minutes at room temperature. The plates were subsequently rinsed two times with distilled water. Total and nonspecific (NS) binding was determined, respectively, by adding 100 μl per well of 125 ng/ml of biotinylated thrombin ([B]-thrombin) alone or containing 12.5 μg/ml of unlabeled thrombin for 90 minutes at room temperature. The plates were then rinsed four times with PBSTT (PBS+0.5% v/v Tween 20 (polyoxyethylene sorbitan monolaurate)), and 100 μl of Avidin-HRP antibody (Becton Dickinson) diluted to 1:1000 was added per well for 120 minutes at room temperature. The plates were subsequently rinsed four times with PBSTT, and 100 μl of Turbo TMB substrate (Pierce) was added for 30 minutes at room temperature. The reaction was stopped by adding 100 μl per well of 1 N H2SO4 and the plates were read immediately at 450 nm using a Spectra Max Plus plate reader (Molecular Device). The specific binding of [B]-thrombin to the coated wells was determined by subtracting non-specific binding from total binding.
Specific thrombin binding was determined using indicated concentrations of biotinylated thrombin alone and with a 100-fold excess of unlabeled thrombin (to define nonspecific binding).

Sequence | specific binding of [B]-thrombin to the complementary peptide | EC50 (increasing concentrations of [B]-thrombin on AC-23-coated wells, n=2±SD, read-out: half maximal binding of [B]-thrombin)
TFTGIPSFPF (complementary peptides) [10C53] | not | 
KGSPTVTFTGIPCFPFIRLVTS [AC-23] | specifically bound | 4.8 ± 0.2 nM
KGSPTVTFTGIPSFPFIRLVTS (complementary peptides) [23C53] | specifically bound | 
